{"source": "paper PMC6908506", "about": "“Development of Foot-and-Mouth Disease Virus-Neutralizing Monoclonal Antibodies Derived From Plasmablasts of Infected Cattle and Their Germline Gene Usage” (Frontiers in Immunology, 2019)", "binders": {"B1": {"name": "B66 (antibody, V domains shown)", "VH": "QVQLRESGPSLVKPSQTLSLTCTVSGFSLTTYSVNWVRQTPGKALECLGGITSGGNAYYQPSLKSRLSITKDNSKNQVSLSINSATPEDTATYYCGKLSGTGVCEGGCACGHDPHVDAWGQGVLVTVSS", "VL": "QAVLTQPSSVSGSLGQRISITCSGSSNNVGLYNVGWYQQIPGSGLRTIIYAGDRRPSGVPDRFSGSEFGDTATLTISSLQAEDEADYFCVTYDSTISAAVFGSGTTLTVL"}, "B2": {"name": "B74 (antibody)", "VH": "QVQLRESGPGLVKPSQTLSLTCTASGFSLSIKAVGWVRQAPGKALEWLGSIDTGGNTGYNPGLKSRLSITKDNSKSQVSLSLSSVTTEDSATYYCATVHQETKKSCSDGYYYRNECGAYGDCTVGNCCCSYASDYCNWCDFRRVTPTYTYEHHVEAWGQGLLVTVSS", "VL": "QAVLTQPSSVSGSLGQRVSITCSGSSGNVGNGYVSWYQLIPGSAPRTLIYGDTTRVSGVPDRFSGSRSGNTATLTISSLQAEDEADYFCASAEDSSNNAVFGSGTTLTVL"}, "B3": {"name": "E50 (antibody)", "VH": "QVQLRESGPSLVKPSQTLSLTCTASGFSLSDKAVGWVRQAPGKALEWLGSVDTSGSTGYNPGLESRLIITKDNSKSRVSLSVHSVTSEDSATYYCVTVHQKSRDEKSCPDGYIDGAGCKYGWPCSDQDCCVCSSCVYGYSGMNCVPARYSESYEWNVEAWGQGLLVTVSS", "VL": "B2 VL with G27T, V56A, F88S, N97S"}, "B4": {"name": "F103 (antibody)", "VH": "QVQLRESGPSLVKPSQTLSLTCTASGFSLSDKAVGWVRQAPGKALEWLGSIDTGGNSGYNPGLKSRLSITKDNSKSQASLSVSSVITGDSATYYCAIVHQETVRKTSGSDAYTCPDGCVLSPACSRERRCLCGTWPRDYCVDHIQSSTYNFYVEAWGQGLLVTVSS", "VL": "B2 VL with G12E, S25I, G27S, N28S, T54S, V56A, E93D, D94G, N97S, V100I"}, "B5": {"name": "E34 (antibody, V domains shown)", "VH": "QVQLRESGPSLVKPSQTLSLTCTVSGFSLNDYNVGWVRQAPGKALECLGGYKADGSTNYNSALKSRLSITKDSSKKQVSLSLSSVTTEDTATYYCAKCPSRWGCDYCDNYDFWGQGLLVTVSS", "VL": "B2 VL with G27S, N28D, N31K, I40M, A44G, T54S, V56I, E93D, N97S"}, "B6": {"name": "B83 (antibody)", "VH": "QVQLRESGPSLVKPSQTLSLTCTASGFSLSDKAVGWVRQAPGKALEWLGSIDTGGSTGYNPGLKSRLSITKDTSKTQVSLSVSSVTTEDSATYYCTNVHQKTTTERSCPDLGYKYECGNNCCWYSSCRGCIQGTYTSTYNFYVHAWGQGLRVTVSS", "VL": "B2 VL with G27S, A44G, T54S, V56A, A92T, N97S, A99V"}, "B7": {"name": "E54 (antibody)", "VH": "QVHLRESGPSLVKPSQTLSLTCTASGFSLSDRAVGWVRQAPGKALEWLGSIDTGGTTGYNPGLKSRLRITKDNSKSQVSLSVSTVTTDDSATYYCGAVYQTTETKTTCPEGYSNTGDCDDDCCCWGSDCSRYARWKRYRGGWFSSDYIVTEVYEFHVDAWGQGLLVSVSS", "VL": "B2 VL with G27S, A44T, T54S, R55P, V56A, S77I, L79F, N97S, A99V"}, "B8": {"name": "C5 (antibody, V domains shown)", "VH": "QVQLRESGPSLVKPSQTLSLTCTVSGFSLSSYGVGWVRQAPGRALEFLADIYSDGSTTYNLALKSRLSIMKDNSKSEVSLSLSSVTTEDTATYYCAKSSRGVGWGDGLHYNENDAGAWGQGLLVTVSS", "VL": "QAVLSQPPSVSGSLGQTVTIPCTGSSNNIGILGVSWYQQIPGSAPRTLVYNNNKRPSGVADRFSGTKSGNTGTLTIASLQAEDEADYYCASADPNFGGGTRVTVL"}, "B9": {"name": "B77 (antibody, V domains shown)", "VH": "QVQLRESGPSLVKPSQTLSLTCTISGFSLSSYTIGWVRQAPGKALEWIGDMSNGGMPYYNPALKSRLSITKHNSKSQVRLSVSSVTPEDTATYYCAKSRYTGDGSIGLYGVDAWGQGLLITVSS", "VL": "QAVLTQPSSVSGSLGQRVSITCSGTYSNVGTGNYVSWFQQIPGSAPRTLIYSVTNRASGVPDRFSGSRSGHTATLTISSLQAEDEADYFCLSWQSGNTALFGSGTTLTVL"}, "B10": {"name": "E18 (antibody, V domains shown)", "VH": "QVQLRESGPSLVTPSQTLSLTCAVSGGSLSTHDVVWVRQAPGRALEWVGGISSRGTTYYNPALKSRLSITQDLSKNQVSLSVGSVTPDDTATYYCAKDLCGGRINGCYNDGYYYSLRVDAWGQGLLVTVSS", "VL": "QAVLAQPSSVSGSLGQRVSITCSGSSNNIGSYGVGWYQQVPGSGLRTIIYGSSNRPSGVPDRFSGSKSGNTATLTISSLQAEDEADYFCAASDYSSNTVVFASGTTLTVL"}, "B11": {"name": "A19 (antibody, V domains shown)", "VH": "QVQLRESGPSLVKPSQTLSLTCTTSGFSLSSYAVGWVRQAPGKALEWVGGISSGGKTCPSPALKTRLSITKLNSRGQVSLSVGSVSTEDTATYYCVKFFSGGWTYSCYGIDFGSVDAWGQGVLVTVSS", "VL": "QAVLTQPSSVSGSLGQRVSITCSGSSNNIGSYGVGWYQQVPGSGLRTIIYGSTSRPSGVPDRFSGSKSGNTATLTISSLQAEDEADYFCAAGDDSSSSVDVFGSGTTLTVL"}, "B12": {"name": "F169 (antibody, V domains shown)", "VH": "QVQLRESGPSLVKPSQTLSLTCTVSGFSLSTYGVAWVRQAPGKALEWIGGISGRGSGSEYYNPPLQSRLSITKDTSRSQVFLSVRTVAPEDTATYYCVKCIDSWCNYDDSGDIDAWGQGLLVTVSS", "VL": "QAVLTQPSSVSGSLGQRVSITCSGSTSNIGKCDVGWYQRVPESGLRTIIYGNSKRPSGVPDRFSGSKSGTVATLTISSLQAEDEAEYFCATGDYSLRTAVFGSGTTLIVL"}, "B13": {"name": "F128 (antibody, V domains shown)", "VH": "QVQLRESGPSLVKPSQTLSLTCTVSGFSLGTYTVTWVRQAPGKALEWVGEISGGGDTDYNPALKSRLSITKHNSKSQVSLSVSSVTPEDTATYYCARCYSTCGCGLSCTSEDSYYVNAWGQGLLVTVSS", "VL": "QAVLTQPSSVSGSLGQRVSITCSGSSSNIGSYNVGWYQQVPGSGLTTIIYGTNNRPSGVPDRFSGSKSGNTATLTISSLRAEDEADYFCVTYDSTSSTIFGTGTTLTVL"}, "B14": {"name": "C4 (antibody, V domains shown)", "VH": "QVQLRESGPSLVKPSQTLFLTCTVSGFSLTSYSVNWVRQTPGKMLECLGGIATSGSTGYNPVLKSRLRITKDNSKSQVSLSVSNVTPEDTATYYCAKWSSRGGYDCGVHSSDYSYLDAWGQGLLVTVSS", "VL": "QAVLTQPSSVSASLGQRVSITCSGSSSNIGRYGATWYQQVPGSGLRTIIYGSSRRPSGVPDRFSGSKSGNTVTLTISSLQPEDEADYFCAAYDISTNAVFGSGTTLTLL"}, "B15": {"name": "B82 (antibody, V domains shown)", "VH": "QVQLRESGPSLVKPSQTLSLTCTVSGFSLSNYAVGWVRQAPGKALEYLGGVRLRGRPDYNPALESRLSITKDNSKSQVSLSVSSVTLEDTATYYCAKSSSGLWDGGCCGGSTSCYVDSWGQGLLVTVSS", "VL": "QAVLTQPSSVSGSLGQRVSITCSGSSSNIGTYTVGWYQQVPGSGLRTIIYSNNNRPSGVPDRFSGSKSGNTATLTISSLQAEDEADYFCVTYESSISTALFGRGTTLTVL"}, "B16": {"name": "B73 (antibody, V domains shown)", "VH": "QVQLRESGPSLVKPSQTLSLTCTVSGFSLSSYDVGWVRQAPGKALECLGSITNRGKTGYNPALKSRLSITKDNSKSQVSLSLNSVTTEDTATYYCAKLNSGGYGIDGNGCYAFGSNYNLYVDAWGQGLLITVSS", "VL": "QAVLTQPSSVSGSLGQRVSITCSGSSSNLGTYNVGWYQQVPGSGLRTIIYGSSSRPSGVPDRFSGSRSGNTATLTISSLQAEDEADYFCTAYDHSISTAVSGSGTTLTVL"}, "B17": {"name": "C9 (antibody, V domains shown)", "VH": "QVQLRESGPSPVKPSQTLSLTCTVSGFSLSSYAVAWVRQAPGKALEWVAGISGGGSTSYNAALKSRLRITKDNSKSQVALSLSSVTSEDTATYYCVKCANDYGSYFCYNYDYGYDFYVDAWGQGLLVTVSS", "VL": "QAVLTQPSSVSGSLGQRVSITCAGSSSNIGTYSVGWYQQVPGSGLTTIIYETTGRPKGVPDRFSGSKSGNTATLTITSLQAEDEADYFCVTYELGSGAVFGSGTTLTVL"}, "B18": {"name": "B57 (antibody, V domains shown)", "VH": "QVQLRESGPSLVKPSQTLSLTCTVSGFSLSGYAVTWVRRAPGQALECLGGISRGGLTNNNPALRSRVSITKDDSKSQVSLSVSTVTPEDTATYYCVRLGATKFGDYGCYGYGLYVDTWGQGLPVTVSS", "VL": "QAVLTQPSSVSGSLGQRVSITCSGSSSNIGRHGVSWYQQVPGSGLRTIIYSGNSRPSGVPDRFSGSKSGNTATLTISSLLAEDEADYFCAADDIVSRTTFFGSVTTLTVL"}, "B19": {"name": "F28 (antibody, V domains shown)", "VH": "QVQLRESGPSLVKPSQTLSLTCTVSGFSLNTYSVYWVRQVPGKALECIGGISSREARGYNPALKPRLSITKDNSKSQVSLSLSSVTTDDTATYYCAKAARGYAFTCGGISSHSDHYVDAWGQGLLVTVSS", "VL": "QAVLTQPSSVSGSLGQRVSISCSGSSSNVGTGNHVSWFQQIPGSAPRTLIYGATRRLSGVPDRFSGSRSGNTATLTISSLQAEDEADYFCASWQSDSTTVFGSGTTLTVL"}, "B20": {"name": "A35 (antibody, V domains shown)", "VH": "QVQLRESGPSLVKPSQTLSLTCTVSGFSLSSNGVIWVRQAPGKALEWLGGICGGGSTSFNPSLKSRLTITKDNSKNQVSLSVRSVTPEDTATYYCARSCGSYRDAWYDCASDGYRYHNYVDAW", "VL": "QAVLTQPSSVSGSLGQRVSITCSGSNNNIGSYAVGWYQQVPGSGLRTIIYGSTIRPSGVPDRFSGSKSRSTATLTISSLQAEDEADYFCATADYSSSTVVFGSGTTLTVL"}}, "note": "Residue numbers refer to the chain shown, from its start."}
{"molecular_target": "FMDV O/Mya/98 146S antigen (Foot-and-mouth disease virus serotype …, UniProt G8JKC2, strain)", "assay": "cell-based or functional assay", "units": {"virus neutralizing test on BHK-21 cells, IC50": "µg/mL"}}
{"binder": "B1", "virus neutralizing test on BHK-21 cells, IC50": 3.13}
{"binder": "B2", "virus neutralizing test on BHK-21 cells, IC50": 7.81}
{"binder": "B3", "virus neutralizing test on BHK-21 cells, IC50": 11.5}
{"binder": "B4", "virus neutralizing test on BHK-21 cells, IC50": 6.22}
{"binder": "B5", "virus neutralizing test on BHK-21 cells, IC50": 3.13}
{"binder": "B6", "virus neutralizing test on BHK-21 cells, IC50": 12.2}
{"binder": "B7", "virus neutralizing test on BHK-21 cells, IC50": 3.65}
{"binder": "B8", "virus neutralizing test on BHK-21 cells, IC50": 4.69}
{"binder": "B9", "virus neutralizing test on BHK-21 cells, IC50": 3.91}
{"binder": "B10", "virus neutralizing test on BHK-21 cells, IC50": 0.78}
{"binder": "B11", "virus neutralizing test on BHK-21 cells, IC50": 17.9}
{"binder": "B12", "virus neutralizing test on BHK-21 cells, IC50": 5.56}
{"binder": "B13", "virus neutralizing test on BHK-21 cells, IC50": 0.98}
{"binder": "B14", "virus neutralizing test on BHK-21 cells, IC50": 2.86}
{"binder": "B15", "virus neutralizing test on BHK-21 cells, IC50": 4.17}
{"binder": "B16", "virus neutralizing test on BHK-21 cells, IC50": 3.28}
{"binder": "B17", "virus neutralizing test on BHK-21 cells, IC50": 1.82}
{"binder": "B18", "virus neutralizing test on BHK-21 cells, IC50": 2.6}
{"binder": "B19", "virus neutralizing test on BHK-21 cells, IC50": 3.33}
{"binder": "B20", "virus neutralizing test on BHK-21 cells, IC50": 1.43}
